Source: publication PMC2196230 (The Journal of Experimental Medicine, 1997)

Target: the molecule itself
Test: SEC

B1: recombinant soluble signaling lymphocytic activation molecule (sSLAM) with a Flag sequence at the carboxy terminus (natural protein, human, UniProt Q13291-3 21-305, looked up)
chain: ASYGTGGRMMNCPKILRQLGSKVLLPLTYERINKSMNKSIHIVVTMAKSLENSVENKIVSLDPSEAGPPRYLGDRYKFYLENLTLGIRESRKEDEGWYLMTLEKNVSVQRFCLQLRLYEQVSTPEIKVLNKTQENGTCTLILGCTVEKGDHVAYSWSEKAGTHPLNPANSSHLLSLTLGPQHADNIYICTVSNPISNNSQTFSPWPGCRTDPSGKTNHYQTTVEKKSLTIYAQVQKPGPLQKKLDSFPAQDPCTTIYVAATEPVPESVQETNSITVYASVTLPES
stoichiometry N: 2
